Where a chain is given by its changes, count along the chain named. Numbers in names are those of the source.
Assays:
[1] = target: T1, pathological hyperphosphorylated tau from human Alzheimer's disease brain (AD-P3 antigens) (human, UniProt P10636 2-758, hyperphosphorylated; phosphoserine at 396); assay: binding to tau isolated from diseased and healthy brains
T1 construct: Brain-derived material with a mixture of tau isoforms and aggregates; Also used for tangles stained in AD brain sections and for the S1, S1p and P3 fractions and lysates of AD brain; also called P3 tau isolated from human AD brains
T1 sequence (P10636 other isoform, or with tags, fused parts or gaps limits assumed): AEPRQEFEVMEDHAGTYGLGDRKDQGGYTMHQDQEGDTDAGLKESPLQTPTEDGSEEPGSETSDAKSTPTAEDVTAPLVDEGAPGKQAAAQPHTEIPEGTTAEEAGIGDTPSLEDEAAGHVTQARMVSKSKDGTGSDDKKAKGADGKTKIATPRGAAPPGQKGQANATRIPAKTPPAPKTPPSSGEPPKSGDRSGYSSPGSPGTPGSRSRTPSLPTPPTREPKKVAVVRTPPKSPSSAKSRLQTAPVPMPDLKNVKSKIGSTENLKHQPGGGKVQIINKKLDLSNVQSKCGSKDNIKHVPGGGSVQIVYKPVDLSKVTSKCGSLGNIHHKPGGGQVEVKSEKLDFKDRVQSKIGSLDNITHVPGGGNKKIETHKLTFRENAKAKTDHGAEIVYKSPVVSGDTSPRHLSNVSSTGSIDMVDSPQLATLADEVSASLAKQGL

[2] = target: T2, Antibody N32S (hC10-2_N32S); assay: fluid phase peptide inhibition of antibody binding to peptide-coated MSD wells
T2 construct: Variant of humanized C10-2 with light chain N32S; also called hC10-2_N325; C10-2_N325
Experimental: (§1) FIG. 2. Peptide inhibition assay illustrating apparent affinity hC10-2 and related C10-2 variants.
(§2) Plates were washed 5 times in (PBS, 0.1% BSA, 0.1% NP40) and anti-human total Tau (MSD sulfo tagged 1:50) was added to detect bound antibody which reflect non-inhibited free antibody.

[3] = target: T3, Antibody C10-2 (humanized C10-2); assay: as above
T3 construct: also called human C10-2; hC10-2
Experimental: as §1, §2

[4] = target: Antibody N32S, A101T (hC10-2_N32S_A101T); assay: as above
Experimental: as §1, §2

[5] = target: T4, P-S396 Tau in Alzheimer brain extracts (human, UniProt P10636 2-758, phosphoserine at 396); assay: immunodepletion of AD brain extract, P-S396 western blot
T4 construct: Brain-derived; Defined by the western blot signal for P-S396; also called S-P396
T4 sequence (P10636 other isoform, or with tags, fused parts or gaps limits assumed): as above
Experimental: FIG. 16. Quantification of P-S396 Tau western blot signal after immunodepleting Alzheimers diseased brain extracts using different amounts of hC10-2 variants N32S, N32Q, N32S_A101T, N32Q_ A101T, N32Q_D55E and N32S_ D55E.
Samples were boiled in 1×LDS loading buffer and 100 mM DTT. A volume corresponding to 3 μl of extracts were loaded on a 4-12% Bis-Tris NuPAGE Gel (LifeTech Novex). After electrophoresis, the proteins were blotted over to a ImmobilonFL PVDF membrane ([…], IPFL10100, Millipore). The membrane was blocked with SEA blocking buffer (Prod#37527, Thermo). Tau and P-tau levels were assessed in the samples using Tau5 (Abcam ab80579, 1:2000) mouse C10-2 (1 μg/ml), P-5199/202 (Invitrogen 44768 G, 1:1000), P-5422 (Abcam ab79415, 1:750), human IPN (1 μg/ml). Gapdh and actin were used as loading controls (Abcam ab9484, 1:2000, Sigma A5441, 1:20000). Secondary fluorophore conjugated IgG antibodies was used (IRDye 800CW Goat anti-Human, IRDye 800CW, Goat anti-rabbit, IRDye 680 Goat anti-mouse, LI-COR biosciences) and the signal was quantified using Odyssey CLx and Image studio software (LI-COR biosciences). Quantification of individual bands as well as signal in whole lanes was done and from this sigmoidal dose-response curves were plotted and when possible max effect and EC50 values were estimated.

B1: IPN002 (antibody, V domains shown)
VH: EVHLVESGGALVKPGGSLKLSCAASGFSFSKYGMSWVRQTPDKRLEWVATISSSGSRTYYPDSVKGQFTISRDNAKNTLYLQMSSLKSEDTAMYYCSISWDGAMDYWGQGTSVTVSS
VL: DVLMTQTPLSLPVSLGDQASISCKSSQSIVHSNGNTYLEWYLQKPGQSPKLLVYKVSNRFSGVPDRFSGSGSGTDFTLKISRVEAEDLGTYYCFQGSLVPWAFGGGTKLEIK
Which “AD/ctrl (binding to tau from AD brain over tau from healthy control brain)” value [1] does the source give for B1 here?
Its value is 3 ratio.

B2: Ptau (P396) 386-408 peptide (peptide)
peptide: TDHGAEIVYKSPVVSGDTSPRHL
modifications: phosphoserine at 396 (tau numbering)
B2 was tested. Which IC50 [2] did it give?
The IC50 was 50 nM.

What about the IC50 [3] of the same binder?
The IC50 was 24 nM.

And the IC50 [4]?
The IC50 was 34 nM.

B3: Antibody N32Q (hC10-2_N32Q) (antibody, human IgG1, kappa, V domains shown)
VH: QVQLVQSGAEVVKPGASVKISCKASGYTFTDRTIHWVRQAPGQGLEWIGYIYPGDGSTKYSQKFQGRATLTADTSASTAYMELSSLRSEDTAVYYCARRGAMDYWGQGTSVTVSS
VL: DVQMTQSPSSLSASVGDRVTMTCQASQDTSIQLNWFQQKPGKAPKLLIYGASNLETGVPSRFSGSRSGTDFTLTISSLQPEDMATYYCLQHTYLPFTFGSGTKLEIKR
For B3, which “percent decrease in the S-P396 signal at 75 ng antibody” value (“percent decrease in the S-P396 signal” below) [5] is on record?
Its value is at least 28%.

B4: hC10-2 variant N32Q_D55E (antibody, human IgG1, kappa, V domains shown)
VH: B3 VH with D55E
VL: B3 VL
notes: Chains are put together from the variant names: light chain N32Q and heavy chain D55E
B4 was tested. Which “percent decrease in the S-P396 signal” value [5] did it give?
The value was 16%.

B5: hC10-2 variant N32S_D55E (antibody, human IgG1, kappa, V domains shown)
VH: B3 VH with D55E
VL: B3 VL with Q32S
notes: Chains are put together from the variant names: light chain N32S and heavy chain D55E; also called C10-2_N32S D55E
How did the “percent decrease in the S-P396 signal” value [5] turn out when B5 was run?
The value was at least 28%.

B6: Antibody N32Q, A101T (hC10-2_N32Q_A101T) (antibody, human IgG1, kappa, V domains shown)
VH: B3 VH with A101T
VL: B3 VL
How did the “percent decrease in the S-P396 signal” value [5] turn out when B6 was run?
The value was at least 28%.

B7: HJ8.5 (antibody, V domains shown)
VH: EVKVEESGGGLVQPGGSMKLSCVVSGFTFSNYWVNWVRQSPEKGLEWVAQIRLKSDNYATHYEESVKGRFTISRDDSKSSVYLQMNNLRAEDSGIYYCTNWEDYWGQGTTLTVSS
VL: DIVLTQSPASLAVSLGQRATISCRASQSVSTSRYSYIHWYQQKPGQPPKLLIKYASNLESGVPARFSGSGSGTDFTLNIHPLEEEDAATYYCHHSWEIPLTFGAGTKLELK
B7 was tested. Which “AD/ctrl (binding to tau from AD brain over tau from healthy control brain)” value [1] did it give?
The value was 3 ratio.

From patent US20190330320A1 (H LUNDBECK A S, published 2019)
